According to the nanobody polyreactivity screen of Harvey et al. (2022):

Assay: yeast display, Sf9 membrane polyspecificity reagent, FACS + sequencing; frameworks hold sequencing errors
Procedure, shortened: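 A synthetic nanobody library was expressed on Saccharomyces cerevisiae BJ5465 by galactose induction for 36–48 hours. The library was stained for 1 hour at 4 °C with 10% biotinylated, detergent-solubilized Sf9 membrane reagent and enriched with streptavidin microbeads before FACS. Low and high (top ~1%) gates were set on anti-HA fluorescence for expression and streptavidin fluorescence for reagent binding, and each polyreactivity label reflects the gate of origin.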

## QVQLVESGGALVQAGGSLRLSCAASRSTSKNYAMGWYRQAPGKERELVAAITRGTSTNYADSVKGRFTISRDNAKNTVYFQMNSLKPEDSAVYYCNVERHRVWDYQWREEDDYWGQGTQVTVSS
  polyreactivity (PSR sort gate): low polyreactivity

## QVQLVESGGGVVQAGGSLRLSCAGSGFTFPSYAMGWYRQAPGKERELVAAISVGGGSTYYADSVKGRFTISRDKAKNTVYLQMNSLKPEDTAVYYCNADYWYWVWLVGGNVDLDYWGQGTQVTVSS
  polyreactivity (PSR sort gate): high polyreactivity

## QVQLVETGGGLVQAGGSLRLSCAASGNTFQRYTMGWYRQAPGNERELVAAITWSGGNTYYADSVKGRFTISRDNAKNTVYLQMNSLKPVDTAVYYCNADYPTTAYDYWGQGTQVSVSS
  polyreactivity (PSR sort gate): low polyreactivity

## QVQLVESGGGLVQAGGSLRLSCAASGSTFDPNAMGWYRQAPGKERELVAVIDSGDGTTNYADSVKGRFTISRDNAKNTVYLQMNSLKPEDTAVYYCNKDTLVYGYVQDYEYWGQGTQVTVSS
  polyreactivity (PSR sort gate): low polyreactivity

## QVQLVESGGGLVEAGGSLRLSCAASGFNIPIYAMGWYRPAPGKERELVASITRSGGSTYYADSVKGRFTISRDNAMNTVYLQMNSLKPEDTAVYFCAASVKIISYLVHSELLGGELDYWGQGTQVTVSS
  polyreactivity (PSR sort gate): low polyreactivity

## QVQLVESGGGLVQAGGSLRLSCAAYGSIRNFYAMGWNRKAPGKERELVPTISSGGNTHYADSVKGRFTISRDNAKNTVYFQMTSLKPEDTAVYYCNKVTIGGFFWYRAYDYWGQGTQVTVSS
  polyreactivity (PSR sort gate): low polyreactivity

## QVQLVESGGGLVQAGGSLRISCAASGYTFYSNAMGWYRQAPGKERELVASIRSRGRSTYYADSVKGRFTISRDNAKYSVYLQMNSLNPEDTAVYYCAALRNKPAVYAYDYWGQGTQVTVSS
  polyreactivity (PSR sort gate): low polyreactivity

## QVQIVESGGGLVQAGGSLRLSCAASGFIFFAYAMGWYRQAPGKERELFAAISRTGGSTYYADSVKGRFTISRDNAKNTVYLQMNSLKPEDTAVYYCAADGGYYGRDYWGQGTQVTVSS
  polyreactivity (PSR sort gate): high polyreactivity

## QVQLGESGGSLVQAGASLRLSCAASAITFYGNAMGWYRQAPGKERELVAAIRRGGSTNYADSVKGRFTISRDNAKKTVYLQMNSLKPEDTAVYYCAADSYGYTFRNYRVGYWGHGTQVTVSS
  polyreactivity (PSR sort gate): high polyreactivity

## QVQLVESGGGLVQAGGSLRLSCAASGSTFDYYAMGWYRQAPGKERELVAAISSSGSSTYYADSVKGLFTISRDNAKNTVYLQMNSLKPEDTAVYYCAKGTNYRDDYWGQGTQVTVSS
  polyreactivity (PSR sort gate): low polyreactivity

## QVQLVESGGGLVQARGSLRLTCAASGRNFYLNAMGWYRQAPGKERELVAAITWSGGRTYYADSVKGRFTISRDNAKNTVYLQMYSLKPEDTAFYYCAAVPRPGPNTVLTPYVYWGQGTQVTVSS
  polyreactivity (PSR sort gate): high polyreactivity

## QVQLVESGGGLVQAGGSLRLSCAASGRTFAGNAMGWYRQAPGKEREFVASITASGVNTYYADSVKGRFTISRDNAKNTVYLQMNSLKPEDTAVYYCNKRNRWTPFYTYEYWGQGTQVTVSS
  polyreactivity (PSR sort gate): low polyreactivity

## QVQLVESGGGLVQAGGSLRLSCAASGLIFYKYAMGWYRPAPGKERELVAAISSSGGSTYYADSVKGRFTISRDNAKNTVYLQMNSLKPEDTAVYYCAARTNRRGYNYWGQGTQVTVSS
  polyreactivity (PSR sort gate): high polyreactivity

## QVQLVESGGGLVQAGGSLRLSCAASGGTFYANAMGWYRQAPGKERELVATITSSSGSTSYADSVKGRFTISRDNAKNTVYLQMNSLKPEDTAVYYCAKDSHAQGPYRYKHYHHTGDYWGQGTQVTVSS
  polyreactivity (PSR sort gate): low polyreactivity

## QVQLVESGGGLVQAGGSLRLSSAASGGIFSRYGMGSYRQAPGKERELVAAITWSGGRTYYADSVKGRFTISRDNAKNTVYLQMNSLKPEETAVYYCAALETSFSSVGYEYWGQGTQVTVSS
  polyreactivity (PSR sort gate): high polyreactivity

## QVQLVESGGGLVQAGGSLRLSCDASGSIFYDYAMGWYRQAPGKERELVAAITSDTTTNYADSVKGRFTISRDNAKNTVYLQMNSLKPEDTAVYYCNTPPQWLGRYITLTFDYWGQGTQVTVSS
  polyreactivity (PSR sort gate): low polyreactivity

## QVQLVESGGGLVQAGGSLRLSCAASGSTFAKYAMGWYRQAPGKERELVAVITSGGSTYYADSVKGRFTISRDNAKNTVYLQMNSLKPEDTAVYYCAAAVRAWARRYDYWGQGTQVTVSS
  polyreactivity (PSR sort gate): high polyreactivity

## QVQLVESGGGLVQAGGSLRLSCAASGSTFVYYAMGLYRQAPGKERELVAAITASGGGTYYADSVKGRFTISRDNAKNPVYLQMNSLKPEVTAVYYCNRGYDYWGQGTQVTVSS
  polyreactivity (PSR sort gate): low polyreactivity

## QVQLVESGGGLVQAGGSLRLICAASGRTFVKNAMGWSRQAPGKERELVAAIDRGSRTNYADSVKGRFTISRDNAKNTVYLQMNSLKPEDTAVYYCATRYRVRDDQTGTWSIFGYWGQGTQVTVSS
  polyreactivity (PSR sort gate): high polyreactivity

## QVQLVESGGGLVQAGGSLRLSCAATGRIISFYVMGWYRQAPGKERELVAAISLSGGSTYYADSVKGRFTNSRDNAKNTVFLQMNCLKPEDTAVYYCYAVLYARQRERWARYDYWGQGTQVTVSS
  polyreactivity (PSR sort gate): high polyreactivity

## QVQLVESGGGLVQAGGSLRLICAASGGTFNAYAMGWYRQAPGKERELVATISYSGGSTYYADSEKGRFTISRDNAKNTVYLQMNSLKPEDTAVYYCATDVYDSTPFRFDYWGQGTQVTVSS
  polyreactivity (PSR sort gate): low polyreactivity

## QVQLVESGGGLVQAGGSLRLSCAASVSTLSDNAMGWYRQAPGKERELVASISWSGGTYYADSVKGRFTISRDNAKNTVYLQMNSLKPEDTAVYYCAAYIYYNYSRQYWYDYWGQGTQVTVSS
  polyreactivity (PSR sort gate): low polyreactivity

## QLQLVESRGGLVQAGGSLRVSCAASGRISQIYAMGWSRQAPGKERELVARITSTDSTYYADSVKGRFTISRDNAKNTVYLQMNSLKPEDTAVYYCAASWWSPYDYWGQGTQVTVSS
  polyreactivity (PSR sort gate): low polyreactivity

## QVQLVESGGGLVQAGGSLRLSCAASGFTFYSYAMGWYRQAPGKERELVAGISRSGGSTYYADSVKGRFTISRDNAKNTVYLQMNSLKPEDTAVYYCNVRLRKKIQNSKYDYWGQGTQVTVSS
  polyreactivity (PSR sort gate): high polyreactivity

## QVQLVESGGGLVQAGGSLRLSCAASGFTFRVYAMGWYRTAPVKEREFVASITWGGGRTYYADSVKGRFTISRDNAKNTVYLLMNSLKPEDTAVYYCAAYGSLDSYVSYYYWGQGTQVTVSS
  polyreactivity (PSR sort gate): high polyreactivity

## QVQLVESGGGLVQAGGSLRLSCAASGSIFYYNAMGWYRQAPGKERELVATIRSGGNTNYADSVKGRFTISRDNAKNTVYLQMNSLKPEDTAVYYCAARGAYHGYRYDSWGQGTQVTVSS
  polyreactivity (PSR sort gate): low polyreactivity

## QVQLVESGGGLVQEGGSLRLSCAASGRIIPSYAMGWYRQAPGKERELVAAISYSGASTYYADSVKGRFTISRDNAKNTVYLLMNCLKPEDTAVYYCATDHDSVRVLVSSTSDYDYWGQGTQVTVSS
  polyreactivity (PSR sort gate): low polyreactivity

## QVQLVESGGGLVQAGGSLRLTCAASGSIFGAKAIGWYIQAPGKERELVAALTWSDTSTYYADSVKGRFTISRDNAKNTVYLQMNSLKPEDTAVYYCAAEYEWVTWGWGYYYWGQGTQVTVSS
  polyreactivity (PSR sort gate): high polyreactivity

## QVQLVESGGGLVQAGGSLRLSCAASGNTFAQNTMGWYRQAPGKEREFVAGITFSGTGTYYADSVKGRFTISRDNAKNTVYLQMNSLKPEDTAVYYCAAESVYTWYYQDDDDYWGQGTQVTVSS
  polyreactivity (PSR sort gate): low polyreactivity

## QVQLVESGGGLVQAGGSLRLSSAASGRIFARYAMGWYIQAPGKERELVAAITVSGDNTYYADSVKGRFTISRDNAKNTVYLQMNSRKPEDSADYYCDVRAVLLFGFFEYDYWGHGTQVTVSS
  polyreactivity (PSR sort gate): low polyreactivity

## QVQLVESGGGLVQAGGSLRLSCAASGRILGAYAMGWYRQPPGKERELVASISSGGRTYYADSVKGRFTISRDNAKNTVYLQMNSLKPEATAVYYCAKKKQLSVPASGYDYVYYWGQGTQVTVSS
  polyreactivity (PSR sort gate): high polyreactivity
